Test results taken from article PMC270082.

How the values were obtained:
[1] = biological target: PcrG (residues 1-98) (P. aeruginosa strain CHA); test: native MS
[2] = biological target: PcrG (1-74) (P. aeruginosa strain CHA); test: SPR
[3] = biological target: PcrG (residues 1-98) (P. aeruginosa strain CHA); test: SPR

## PcrV (from UniProt G3XD49 1-294) (natural protein)
[1]
  stoichiometry N: 1
[2]
  Kd: 0.0156 µM
  koff: 0.00491 s⁻¹
  kon: 316000 M⁻¹ s⁻¹
[3]
  Kd: 0.0156 µM
  koff: 0.00694 s⁻¹
  kon: 445000 M⁻¹ s⁻¹
